Numbering of substitutions follows the chain as printed. Names may count otherwise.
How the values were obtained:
NaLigE = molecular target: T1, NaLigE (Novosphingobium aromaticivorans, UniProt Q2G5N2); experiment: initial rate of GS-HPV formation by HPLC, Michaelis-Menten fit; format: biochemical; settings: racemic MPHPV added, concentration counted as β(R); 5 mM GSH, 25 mM Tris-HCl pH 8.0, 25 mM NaCl, 25 °C; per subunit of the homodimer
T1 construct: gene Saro_2405; recombinant from E. coli; N-terminal His8 tag cut by TEV (SAIAG- left); homodimer
T1 sequence (Q2G5N2 1-279): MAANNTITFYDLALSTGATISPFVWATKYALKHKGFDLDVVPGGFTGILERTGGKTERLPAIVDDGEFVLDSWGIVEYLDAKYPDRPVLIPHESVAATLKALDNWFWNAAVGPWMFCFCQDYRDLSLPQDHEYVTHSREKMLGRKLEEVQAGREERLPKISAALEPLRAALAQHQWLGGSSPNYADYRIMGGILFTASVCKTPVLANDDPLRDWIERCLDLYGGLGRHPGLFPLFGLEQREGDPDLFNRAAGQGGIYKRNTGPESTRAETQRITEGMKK
Text: initial rate of GS-HPV formation by HPLC, Michaelis-Menten fit on NaLigE

NaLigF1 = molecular target: T2, NaLigF1 (Novosphingobium aromaticivorans, UniProt Q2G6J3); experiment: HPLC end-point conversion of MPHPV; format: biochemical; settings: β(S)-MPHPV left after BaeA+BaeB reaction on racemic MPHPV; GSH, 25 mM Tris-HCl pH 8.0, 25 mM NaCl, 30 °C
T2 construct: gene Saro_2091; recombinant, purified as described previously
T2 sequence (Q2G6J3 11-257 limits assumed): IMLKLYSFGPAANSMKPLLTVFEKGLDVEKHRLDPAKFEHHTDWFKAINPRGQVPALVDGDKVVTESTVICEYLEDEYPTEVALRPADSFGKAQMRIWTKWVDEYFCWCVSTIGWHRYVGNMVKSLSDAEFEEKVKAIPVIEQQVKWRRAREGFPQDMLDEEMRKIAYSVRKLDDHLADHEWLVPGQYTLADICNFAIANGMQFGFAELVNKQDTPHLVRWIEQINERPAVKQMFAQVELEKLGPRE

[1] = substrate: COc1cc(C(=O)[C@@H](CO)Oc2ccccc2OC)ccc1O; experiment: initial rate of GS-HPV formation by HPLC, Michaelis-Menten fit; format: biochemical, Novosphingobium aromaticivorans; settings: racemic MPHPV added, concentration counted as β(R), 5 mM GSH, 25 mM Tris-HCl pH 8.0, 25 mM NaCl, 25 °C, per heterodimer
Text: initial rate of GS-HPV formation by HPLC, Michaelis-Menten fit on BaeAB

With `COc1cc(C(=O)[C@@H](CO)Oc2ccccc2OC)ccc1O` [β(R)-MPHPV] the Km (NaLigE) was 7 ± 1 µM.

`COc1cc(C(=O)[C@H](CO)Oc2ccccc2OC)ccc1O` [β(S)-MPHPV] was tested, and the “HPLC end-point conversion of MPHPV” value (NaLigF1) was “upon the addition of NaLigF1, the MPHPV was completely converted into GS-HPV and guaiacol”.

B1: BaeAB (Novosphingobium aromaticivorans DSM 12444) (protein)
chain: MDEVSLYHWEPNANSGKPMLALMEKGVPFSSHYIDMLQFDQHKPEYLAINPQGTIPAMTHNGQVLTESTAIMEYVNDRFDGPDLMPADAQDRWRVRWWMKFMDQWLGPSFSMIGWSVFVGPMVRQRDPAELAAAIDRIPLPERRTAWRKAINGDFSESEMAESRRRVGLGIAKLEEELGKRPYVGSNQYSLADINIFNSTYSLPISQPDLAGKDRTPNIMRWLKRVYTREAVKKTWAMGKTDLAHRYGLIMAEIEG
notes: co-expressed in E. coli B834, His8 tag on BaeB cut by TEV leaving SAIAG- linked to Ser2 (Met1 not coded); heterodimer, ~59 kDa by GPC; with Glutathione S-transferase-like protein (beta-etherase subunit BaeB)
Work on B1 yielded a Km [1] of 20 ± 3 µM, a kcat [1] of 2.9 ± 0.3 s⁻¹ and a kcat/Km [1] of 150000 ± 30000 M⁻¹ s⁻¹.

B2: BaeAB (Novosphingobium aromaticivorans DSM 12444; N14A) (protein)
chain: B1 chain with N14A
notes: as for B1
B2 gave a Km [1] of 250 ± 60 µM, a kcat [1] of 0.14 ± 0.02 s⁻¹ and a kcat/Km [1] of 500 ± 200 M⁻¹ s⁻¹.

B3: BaeAB (Novosphingobium aromaticivorans DSM 12444; S15A) (protein)
chain: B1 chain with S15A
notes: as for B1
B3 was tested, and the Km [1] was 100 ± 20 µM, the kcat [1] was 2.4 ± 0.3 s⁻¹ and the kcat/Km [1] was 23000 ± 6000 M⁻¹ s⁻¹.

From article PMC6369299, “A heterodimeric glutathione S-transferase that stereospecifically breaks lignin's β(R)-aryl ether bond reveals the diversity of bacterial β-etherases” (The Journal of Biological Chemistry, 2018)
